In patent publication US20150368311A1 (Sanofi, published 2015):
Non-standard residues stand in square brackets, D forms with d. No end group written: not given here. Ala(4-thiazolyl) = N[C@@H](Cc1cscn1)C(=O)O; 1Nal = N[C@@H](Cc1cccc2ccccc12)C(=O)O; Nle = CCCC[C@H](N)C(=O)O

What was measured:
Assay in all cases: cell-based or functional assay
human GLP-1 receptor [1] = target: T1, human GLP-1 receptor (human, UniProt P43220 24-463)
human glucagon receptor [2] = target: T2, human glucagon receptor (human, UniProt P47871 26-477)
T2 sequence (P47871 26-477): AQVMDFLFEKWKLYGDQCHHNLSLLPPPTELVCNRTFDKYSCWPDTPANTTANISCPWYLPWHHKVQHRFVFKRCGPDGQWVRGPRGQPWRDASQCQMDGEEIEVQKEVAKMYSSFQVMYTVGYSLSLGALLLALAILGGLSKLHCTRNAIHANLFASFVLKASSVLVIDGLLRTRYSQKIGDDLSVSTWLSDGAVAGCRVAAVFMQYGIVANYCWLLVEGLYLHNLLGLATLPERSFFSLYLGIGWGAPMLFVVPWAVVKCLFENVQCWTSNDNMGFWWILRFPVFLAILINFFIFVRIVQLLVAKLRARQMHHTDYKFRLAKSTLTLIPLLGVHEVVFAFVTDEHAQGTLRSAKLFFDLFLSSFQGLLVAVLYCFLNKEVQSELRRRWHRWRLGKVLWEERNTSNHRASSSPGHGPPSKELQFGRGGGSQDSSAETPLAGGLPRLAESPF

human GLP-1 receptor [3] = target: T1, human GLP-1 receptor; remark: listed apart in the source
human glucagon receptor [4] = target: T2, human glucagon receptor; remark: listed apart in the source

Binder | EC50 hGLP-1R, cAMP formation (human GLP-1 receptor [1]) [nM] | EC50 hGlucagon-R, cAMP formation (human glucagon receptor [2]) [pM] | EC50 hGLP-1 R [pM], cAMP formation (human GLP-1 receptor [3]) [pM] | EC50 hGLUC R [pM], cAMP formation (human glucagon receptor [4]) [pM]
[Ala(4-thiazolyl)]SQGTFTSDLSKQLESRRAQDFIEWLLATGPESGAPPPS-OH (N-terminus assumed; SMILES CC[C@H](C)[C@H](NC(=O)[C@H](Cc1ccccc1)NC(=O)[C@H](CC(=O)O)NC(=O)[C@H](CCC(N)=O)NC(=O)[C@H](C)NC(=O)[C@H](CCCNC(=N)N)NC(=O)[C@H](CCCNC(=N)N)NC(=O)[C@H](CO)NC(=O)[C@H](CCC(=O)O)NC(=O)[C@H](CC(C)C)NC(=O)[C@H](CCC(N)=O)NC(=O)[C@H](CCCCN)NC(=O)[C@H](CO)NC(=O)[C@H](CC(C)C)NC(=O)[C@H](CC(=O)O)NC(=O)[C@H](CO)NC(=O)[C@@H](NC(=O)[C@H](Cc1ccccc1)NC(=O)[C@@H](NC(=O)CNC(=O)[C@H](CCC(N)=O)NC(=O)[C@H](CO)NC(=O)[C@@H](N)Cc1cscn1)[C@@H](C)O)[C@@H](C)O)C(=O)N[C@@H](CCC(=O)O)C(=O)N[C@@H](Cc1c[nH]c2ccccc12)C(=O)N[C@@H](CC(C)C)C(=O)N[C@@H](CC(C)C)C(=O)N[C@@H](C)C(=O)N[C@H](C(=O)NCC(=O)N1CCC[C@H]1C(=O)N[C@@H](CCC(=O)O)C(=O)N[C@@H](CO)C(=O)NCC(=O)N[C@@H](C)C(=O)N1CCC[C@H]1C(=O)N1CCC[C@H]1C(=O)N1CCC[C@H]1C(=O)N[C@@H](CO)C(=O)O)[C@@H](C)O) [SEQ ID NO: 15] | 34.5 | 2.2 | 34500 | 2.2
[Ala(4-thiazolyl)]SQGTFTSDLSKQ[Nle]ESRRAQEFIEWLLATGPESGAPPPS-OH (N-terminus assumed; SMILES CCCC[C@H](NC(=O)[C@H](CCC(N)=O)NC(=O)[C@H](CCCCN)NC(=O)[C@H](CO)NC(=O)[C@H](CC(C)C)NC(=O)[C@H](CC(=O)O)NC(=O)[C@H](CO)NC(=O)[C@@H](NC(=O)[C@H](Cc1ccccc1)NC(=O)[C@@H](NC(=O)CNC(=O)[C@H](CCC(N)=O)NC(=O)[C@H](CO)NC(=O)[C@@H](N)Cc1cscn1)[C@@H](C)O)[C@@H](C)O)C(=O)N[C@@H](CCC(=O)O)C(=O)N[C@@H](CO)C(=O)N[C@@H](CCCNC(=N)N)C(=O)N[C@@H](CCCNC(=N)N)C(=O)N[C@@H](C)C(=O)N[C@@H](CCC(N)=O)C(=O)N[C@@H](CCC(=O)O)C(=O)N[C@@H](Cc1ccccc1)C(=O)N[C@H](C(=O)N[C@@H](CCC(=O)O)C(=O)N[C@@H](Cc1c[nH]c2ccccc12)C(=O)N[C@@H](CC(C)C)C(=O)N[C@@H](CC(C)C)C(=O)N[C@@H](C)C(=O)N[C@H](C(=O)NCC(=O)N1CCC[C@H]1C(=O)N[C@@H](CCC(=O)O)C(=O)N[C@@H](CO)C(=O)NCC(=O)N[C@@H](C)C(=O)N1CCC[C@H]1C(=O)N1CCC[C@H]1C(=O)N1CCC[C@H]1C(=O)N[C@@H](CO)C(=O)O)[C@@H](C)O)[C@@H](C)CC) [SEQ ID NO: 16] | 19.7 | 0.9 | 19700 | 0.9
[Ala(4-thiazolyl)]SQGTFTSDLSKQLESRRAQEFIEWLLAGGPESGAPPPS-OH (N-terminus assumed; SMILES CC[C@H](C)[C@H](NC(=O)[C@H](Cc1ccccc1)NC(=O)[C@H](CCC(=O)O)NC(=O)[C@H](CCC(N)=O)NC(=O)[C@H](C)NC(=O)[C@H](CCCNC(=N)N)NC(=O)[C@H](CCCNC(=N)N)NC(=O)[C@H](CO)NC(=O)[C@H](CCC(=O)O)NC(=O)[C@H](CC(C)C)NC(=O)[C@H](CCC(N)=O)NC(=O)[C@H](CCCCN)NC(=O)[C@H](CO)NC(=O)[C@H](CC(C)C)NC(=O)[C@H](CC(=O)O)NC(=O)[C@H](CO)NC(=O)[C@@H](NC(=O)[C@H](Cc1ccccc1)NC(=O)[C@@H](NC(=O)CNC(=O)[C@H](CCC(N)=O)NC(=O)[C@H](CO)NC(=O)[C@@H](N)Cc1cscn1)[C@@H](C)O)[C@@H](C)O)C(=O)N[C@@H](CCC(=O)O)C(=O)N[C@@H](Cc1c[nH]c2ccccc12)C(=O)N[C@@H](CC(C)C)C(=O)N[C@@H](CC(C)C)C(=O)N[C@@H](C)C(=O)NCC(=O)NCC(=O)N1CCC[C@H]1C(=O)N[C@@H](CCC(=O)O)C(=O)N[C@@H](CO)C(=O)NCC(=O)N[C@@H](C)C(=O)N1CCC[C@H]1C(=O)N1CCC[C@H]1C(=O)N1CCC[C@H]1C(=O)N[C@@H](CO)C(=O)O) [SEQ ID NO: 4] | 3.3 | 0.7 | 3300 | 0.7
[Ala(4-thiazolyl)]SQGTFTSD[1Nal]SKQLESRRAQEFIEWLLATGPESGAPPPS-OH (N-terminus assumed; SMILES CC[C@H](C)[C@H](NC(=O)[C@H](Cc1ccccc1)NC(=O)[C@H](CCC(=O)O)NC(=O)[C@H](CCC(N)=O)NC(=O)[C@H](C)NC(=O)[C@H](CCCNC(=N)N)NC(=O)[C@H](CCCNC(=N)N)NC(=O)[C@H](CO)NC(=O)[C@H](CCC(=O)O)NC(=O)[C@H](CC(C)C)NC(=O)[C@H](CCC(N)=O)NC(=O)[C@H](CCCCN)NC(=O)[C@H](CO)NC(=O)[C@H](Cc1cccc2ccccc12)NC(=O)[C@H](CC(=O)O)NC(=O)[C@H](CO)NC(=O)[C@@H](NC(=O)[C@H](Cc1ccccc1)NC(=O)[C@@H](NC(=O)CNC(=O)[C@H](CCC(N)=O)NC(=O)[C@H](CO)NC(=O)[C@@H](N)Cc1cscn1)[C@@H](C)O)[C@@H](C)O)C(=O)N[C@@H](CCC(=O)O)C(=O)N[C@@H](Cc1c[nH]c2ccccc12)C(=O)N[C@@H](CC(C)C)C(=O)N[C@@H](CC(C)C)C(=O)N[C@@H](C)C(=O)N[C@H](C(=O)NCC(=O)N1CCC[C@H]1C(=O)N[C@@H](CCC(=O)O)C(=O)N[C@@H](CO)C(=O)NCC(=O)N[C@@H](C)C(=O)N1CCC[C@H]1C(=O)N1CCC[C@H]1C(=O)N1CCC[C@H]1C(=O)N[C@@H](CO)C(=O)O)[C@@H](C)O) [SEQ ID NO: 11] | 11.7 | 0.9 | 11700 | 0.9
[Ala(4-thiazolyl)]SQGTFTSDLSKQ[Nle]ESRRAQDFIEWLLATGPESGAPPPS-OH (N-terminus assumed; SMILES CCCC[C@H](NC(=O)[C@H](CCC(N)=O)NC(=O)[C@H](CCCCN)NC(=O)[C@H](CO)NC(=O)[C@H](CC(C)C)NC(=O)[C@H](CC(=O)O)NC(=O)[C@H](CO)NC(=O)[C@@H](NC(=O)[C@H](Cc1ccccc1)NC(=O)[C@@H](NC(=O)CNC(=O)[C@H](CCC(N)=O)NC(=O)[C@H](CO)NC(=O)[C@@H](N)Cc1cscn1)[C@@H](C)O)[C@@H](C)O)C(=O)N[C@@H](CCC(=O)O)C(=O)N[C@@H](CO)C(=O)N[C@@H](CCCNC(=N)N)C(=O)N[C@@H](CCCNC(=N)N)C(=O)N[C@@H](C)C(=O)N[C@@H](CCC(N)=O)C(=O)N[C@@H](CC(=O)O)C(=O)N[C@@H](Cc1ccccc1)C(=O)N[C@H](C(=O)N[C@@H](CCC(=O)O)C(=O)N[C@@H](Cc1c[nH]c2ccccc12)C(=O)N[C@@H](CC(C)C)C(=O)N[C@@H](CC(C)C)C(=O)N[C@@H](C)C(=O)N[C@H](C(=O)NCC(=O)N1CCC[C@H]1C(=O)N[C@@H](CCC(=O)O)C(=O)N[C@@H](CO)C(=O)NCC(=O)N[C@@H](C)C(=O)N1CCC[C@H]1C(=O)N1CCC[C@H]1C(=O)N1CCC[C@H]1C(=O)N[C@@H](CO)C(=O)O)[C@@H](C)O)[C@@H](C)CC) [SEQ ID NO: 3] | 44.3 | 1.8 | 44300 | 1.8
[Ala(4-thiazolyl)]SQGTFTSDLSKQLESRRAQEFIEWLLATGPESGAPPPS-OH (N-terminus assumed; SMILES CC[C@H](C)[C@H](NC(=O)[C@H](Cc1ccccc1)NC(=O)[C@H](CCC(=O)O)NC(=O)[C@H](CCC(N)=O)NC(=O)[C@H](C)NC(=O)[C@H](CCCNC(=N)N)NC(=O)[C@H](CCCNC(=N)N)NC(=O)[C@H](CO)NC(=O)[C@H](CCC(=O)O)NC(=O)[C@H](CC(C)C)NC(=O)[C@H](CCC(N)=O)NC(=O)[C@H](CCCCN)NC(=O)[C@H](CO)NC(=O)[C@H](CC(C)C)NC(=O)[C@H](CC(=O)O)NC(=O)[C@H](CO)NC(=O)[C@@H](NC(=O)[C@H](Cc1ccccc1)NC(=O)[C@@H](NC(=O)CNC(=O)[C@H](CCC(N)=O)NC(=O)[C@H](CO)NC(=O)[C@@H](N)Cc1cscn1)[C@@H](C)O)[C@@H](C)O)C(=O)N[C@@H](CCC(=O)O)C(=O)N[C@@H](Cc1c[nH]c2ccccc12)C(=O)N[C@@H](CC(C)C)C(=O)N[C@@H](CC(C)C)C(=O)N[C@@H](C)C(=O)N[C@H](C(=O)NCC(=O)N1CCC[C@H]1C(=O)N[C@@H](CCC(=O)O)C(=O)N[C@@H](CO)C(=O)NCC(=O)N[C@@H](C)C(=O)N1CCC[C@H]1C(=O)N1CCC[C@H]1C(=O)N1CCC[C@H]1C(=O)N[C@@H](CO)C(=O)O)[C@@H](C)O) [SEQ ID NO: 12] | 20 | 1 | 20000 | 1
